From patent US20240002497A1 (Merck Sharp & Dohme, published 2024)
Each block holds one binder with its values, some of them ahead of it.

Legend:
huNav1.7α = biological target: T1, huNav1.7α (human, UniProt Q15858 1-1988); experiment: further characterization (binding ELISA and FACS)
T1 construct: HEK cells expressing the α subunit alone; also called HEKa; HEK huNav1.7α

Navβ3 = biological target: T2, Navβ3 (human, UniProt Q9NY72 23-215, limits assumed); experiment: binding ELISA
T2 construct: also called beta3 subunit

[1] = biological target: T3, muNav1.7α (murine Nav1.7α) (murine, UniProt Q62205 1-1984); experiment: binding FACS; minus = lower activity than reference
T3 construct: HEK Jmp-In cells

[2] = biological target: T4, huNav1.7α (human Nav1.7 alpha subunit, expressed without β subunits) (human, UniProt Q15858 1-1988); experiment: binding FACS, HEKa cells
T4 construct: also called HEK293 human Nav1.7α; HEKa Nav1.7α

[3] = biological target: T5, huNav1.7α + β1 (human Nav1.7α co-expressed with Navβ1) (human, UniProt Q15858 1-1988; Q07699 19-218); experiment: binding FACS, HEKa/β1 cells
T5 construct: also called HEK293 human Nav1.7α + β1; HEKa/β1 Nav1.7α

[4] = biological target: T6, huNav1.7α + β1-β2-β3 (human Nav1.7α co-expressed with Navβ1, Navβ2 and Navβ3) (human); experiment: binding FACS, HEK FlpIn cells
T6 construct: also called huNav1.7-beta1-beta2-beta3

[5] = biological target: T7, huNav157 chimera 14 + β1-β2-β3 (human); experiment: binding FACS, HEK FlpIn cells
T7 construct: Chimera of huNav1.7α (extracellular loops and transmembrane helices) and huNav1.5α (intracellular loops); also called Nav157ch14-β1-β2-β3; huNav157 chimera 14-beta1-beta2-beta3

huNav157 chimera 14 = biological target: T8, huNav157 chimera 14 (human); experiment: binding FACS, HEK FlpIn cells
T8 construct: Chimera without β subunits; also called Nav157ch14

huNav157chim14 = biological target: T9, huNav157chim14 (human); experiment: binding FACS, HEK Flp-In
T9 construct: HEK Flp-In cells; also called huNav157 chimera 14

huNav157chim14-β1-β2-β3 = biological target: T10, huNav157chim14-β1-β2-β3 (human); experiment: binding FACS, HEK Flp-In
T10 construct: Whole entry; HEK Flp-In cells; also called huNav157 chimera 14-beta1-beta2-beta3

huNav1.7α + β1-β2-β3 [6] = biological target: T11, huNav1.7α + β1-β2-β3 (human, UniProt Q15858 1-1988; A5A6L6 19-218; O60939 30-215; Q2KI11 23-215); experiment: FACS, CHO Flp-In, competitor 1 µM IRR00092
T11 construct: also called huNav1.7-beta1-beta2-beta3; huNav1.7-β1-β2-β3

rhNav1.7α + β1-β2-β3 [7] = biological target: T12, rhNav1.7α + β1-β2-β3 (rhesus monkey); experiment: FACS, CHO Flp-In, competitor 1 µM IRR00092
T12 construct: also called rhNav1.7-beta1-beta2-beta3; rhNav1.7-β1-β2-β3

rhNav1.7α + β1-β2-β3 [8] = biological target: T12, rhNav1.7α + β1-β2-β3; experiment: FACS, CHO Flp-In, competitor 1 µM F010300703
huNav1.7α + β1-β2-β3 [9] = biological target: T11, huNav1.7α + β1-β2-β3; experiment: binding FACS, CHO Flp-In, periplasmic extract

binding result (Navβ3): no binding
binding result (huNav1.7α): no binding
B5: F0103505D08 (VHH)
VHH: EVQLVESGGGLVQAGGSLRLSCVTSGRTSDLSTMNWFRQAPGKEREFVARITRRGSTYYAESVKERFIISRDNAKNTVYLQMNSLKPEDTANYYCTAASEMGYHYRGQGTLVTVSS
notes: Purified monovalent protein; also called F0103505D8

EC50 fold change compared to reference [1]: -2 fold
B6: F010301871 (VHH)
VHH: EVQLVESGGGVVQPGGSLRLSCAATSRAFIRDVFTGWYRRVPGKERELVARIYNGGNTNYADFAKGRFTISRDNAKKMVYLQMNSLRPEDTALYYCLFSGTINTGREYRSGDYWGQGTLVTVSS
notes: also called F0103464B09(L11V, T24A, S68T, T79Y, R81Q, S82aN, N82bS, K83R, G88A, V89L); T24A

EC50 fold change compared to reference [1]: -2 fold
B7: F010301876 (VHH)
VHH: EVQLVESGGGVVQPGGSLRLSCATTSRAFIRDVFTGWYRRVPGKERELVARIYNGGNTNYADFVKGRFTISRDNAKKMVYLQMNSLRPEDTALYYCLFSGTINTGREYRSGDYWGQGTLVTVSS
notes: also called F0103464B09(L11V, A63V, S68T, T79Y, R81Q, S82aN, N82bS, K83R, G88A, V89L); A63V

EC50 fold change compared to reference [1]: -4 fold
B8: F010301873 (VHH)
VHH: EVQLVESGGGVVQPGGSLRLSCATTSRAFIRDVFTGWYRQVPGKERELVARIYNGGNTNYADFAKGRFTISRDNAKKMVYLQMNSLRPEDTALYYCLFSGTINTGREYRSGDYWGQGTLVTVSS
notes: also called F0103464B09(L11V, R39Q, S68T, T79Y, R81Q, S82aN, N82bS, K83R, G88A, V89L); R39Q

binding result (Navβ3): no binding
binding result (huNav1.7α): no binding
B12: F0103492E09 (VHH)
VHH: EVQLVESGGGLVQAGGSLRLSCAASKSILSFAYMRWYRQAPGKQREFVASIAIGGATSYTDSVKGRFTISRDNAKNTVYLQMNSLKPEDTAVYYCSAPAGQYRGQGTLVTVSS
notes: Purified monovalent protein

MFI (huNav157chim14): 58400 MFI
MFI (huNav157chim14-β1-β2-β3): 133000 MFI
MFI (huNav1.7α + β1-β2-β3 [6]): 104000 MFI
MFI (rhNav1.7α + β1-β2-β3 [7]): 111000 MFI
MFI (rhNav1.7α + β1-β2-β3 [8]): 25200 MFI
MFI (huNav1.7α + β1-β2-β3 [9]): 40200 MFI
B13: F0103PMP492E09 (bispecific antibody)
chain: EVQLVESGGGLVQPGGSLRLSCAASGSIFNINSMAWYRRAPGKQRELVASSTNGGSTNYADSVKGRFTISRDNAKRVYLQMNSLTPEDTAVYYCRALLQPSIYDISRTYWGQGTLVTVSSGGGGSGGGGSGGGGSGGGGSGGGGSGGGGSGGGGSGGGGSGGGGSGGGGSEVQLVESGGGLVQAGGSLRLSCAASKSILSFAYMRWYRQAPGKQREFVASIAIGGATSYTDSVKGRFTISRDNAKNTVYLQMNSLKPEDTAVYYCSAPAGQYRGQGTLVTVSSAAADYKDHDGDYKDHDIDYKDDDDKGAAHHHHHHKAAGGGGG
notes: crude periplasmic extract; also called F103275B05(N93R)-50GS-F0103492E09 bivalent ISVD

MFI (huNav157chim14): 799 MFI
MFI (huNav157chim14-β1-β2-β3): 1230 MFI
MFI (huNav1.7α + β1-β2-β3 [6]): 137000 MFI
MFI (rhNav1.7α + β1-β2-β3 [7]): 139000 MFI
MFI (rhNav1.7α + β1-β2-β3 [8]): 60600 MFI
MFI (huNav1.7α + β1-β2-β3 [9]): 82800 MFI
B14: F0103PMP478E09 (bispecific antibody)
chain: EVQLVESGGGLVQPGGSLRLSCAASGSIFNINSMAWYRRAPGKQRELVASSTNGGSTNYADSVKGRFTISRDNAKRVYLQMNSLTPEDTAVYYCRALLQPSIYDISRTYWGQGTLVTVSSGGGGSGGGGSGGGGSGGGGSGGGGSGGGGSGGGGSGGGGSGGGGSGGGGSEVQLVESGGGLVQAGGSLRLSCAASGRAFSTLAMGWFRQAPGKEREFVAAISRNGNNSATGDSLKGRFTISRDSTKSTVFLQMNTLKPEDTAVYYCAAISTPSASHPYVRKESYRYWGQGTQVTVSSAAADYKDHDGDYKDHDIDYKDDDDKGAAHHHHHHKAAGGGGG
notes: Screened as crude periplasmic extract; also called F103275B05(N93R)-50GS-F0103478E09 bivalent ISVD

The next lines start with the binder.

B1: F0103495F09 (VHH)
VHH: EVQLVESGGGLVQAGSSLSLSCAASGRALSTYAMGWFRQAPGKEREFVARISRSGITTYYTDSVKGRFTISRDRAKDTVYLQMNSLKPEDTAIYLCAADASTNPAGYYLRNRYDYWGQGTLVTVSS
notes: also called F103495F09
binding result (huNav1.7α): no binding

B2: F0103240B04 (VHH)
VHH: EVQLVESGGGLVQAGGSLRLSCAASGGTGRRYAMGWFRQAPGKEREIVAAIRWSAMTYYADDGKGRFTISRDNAKNTVYLQMNSLKPEDTAIYYCAYTWDYFKYDQVRAYRGWGQGTLVTVSS
notes: Purified monovalent protein; also called anti-Navβ2 ISVD F0103240B04
binding result (Navβ3): no binding

B3: F0103500E03 (VHH)
VHH: EVQLVESGGGLVQPGGSLRLSCAASGRTFSRYQMGWFRQAPGKEREFVAYISWSGSTRYVDSVKGRFTISRDNAKNTVYLQMNSLKPEDTAVYHCAAGTAGIISSRPETYDSWGQGTLVTVSS
notes: Purified monovalent protein
binding result (Navβ3): no binding
binding result (huNav1.7α): no binding

B4: F0103478E09 (VHH)
VHH: EVQLVESGGGLVQAGGSLRLSCAASGRAFSTLAMGWFRQAPGKEREFVAAISRNGNNSATGDSLKGRFTISRDSTKSTVFLQMNTLKPEDTAVYYCAAISTPSASHPYVRKESYRYWGQGTLVTVSS
notes: Purified monovalent protein
binding result (Navβ3): no binding
binding result (huNav1.7α): no binding

B9: F010301872 (VHH)
VHH: EVQLVESGGGVVQPGGSLRLSCATSSRAFIRDVFTGWYRRVPGKERELVARIYNGGNTNYADFAKGRFTISRDNAKKMVYLQMNSLRPEDTALYYCLFSGTINTGREYRSGDYWGQGTLVTVSS
notes: also called F0103464B09(L11V, T25S, S68T, T79Y, R81Q, S82aN, N82bS, K83R, G88A, V89L); T25S
EC50 fold change compared to reference [1]: -2 fold

B10: F010301850 (VHH)
VHH: EVQLVESGGGVVQPGGSLRLSCAASGRILRIGYMRWYRQAPGKQREFVARITDDSATGYADSVKGRFTISRDNAKNTVYLQMNSLRPEDTALYYCEALVTASVRGGSIHSGTYWGQGTLVTVSS
notes: also called F0103387G05(L11V, A14P, D23A, H37Y, G40A, A41P, D58G, N82bS, N83R, V89L, R105Q)
Bmax [2]: 100%
EC50 [2]: 2.8 nM
EC50 [3]: 1.8 nM
EC50 [4]: 1.9 nM
EC50 [5]: 3 nM
EC50 (huNav157 chimera 14): 5.4 nM

B11: F010302309 (VHH)
VHH: EVQLVESGGGVVQPGGSLRLSCAASGRILRIGYMRWYRQAPGKQREFVARITDDSATGYADSVKGRFTISRDQAKNTVYLQMNSLRPEDTALYYCEALVTASVRGGSIHSGTYWGQGTLVTVSS
notes: also called F0103387G05(L11V, A14P, D23A, H37Y, G40A, A41P, D58G, N73Q, N82bS, N83R, V89L, R105Q)
Bmax [2]: 100%
EC50 [2]: 2.2 nM
EC50 [3]: 1.5 nM
EC50 [4]: 2.3 nM
